Tests used:
GAS cognate DNA = test: EMSA with P32-labeled cognate DNA; type: binding; settings: data not shown
[1] = tested on: GAS consensus site DNA (TTCnnnGAA); test: TIRF-PBM binding of STAT1 proteins to DNA

Molecule	fold decrease in binding affinity vs P-STAT1 (GAS cognate DNA) [fold]	fold impact on affinity compared to P-STAT1 binding ([1]; optimal GAS site DNA) [fold]	average fold impact on binding compared to P-STAT1 at preferred binding sites ([1]; reduced binding) [fold]
U-STAT1: unphosphorylated STAT1 (protein, UniProt P42224 2-750, looked up, unphosphorylated) Signal transducer and …: SQWYELQQLDSKFLEQVHQLYDDSFPMEIRQYLAQWLEKQDWEHAANDVSFATIRFHDLLSQLDDQYSRFSLENNFLLQHNIRKSKRNLQDNFQEDPIQMSMIIYSCLKEERKILENAQRFNQAQSGNIQSTVMLDKQKELDSKVRNVKDKVMCIEHEIKSLEDLQDEYDFKCKTLQNREHETNGVAKSDQKQEQLLLKKMYLMLDNKRKEVVHKIIELLNVTELTQNALINDELVEWKRRQQSACIGGPPNACLDQLQNWFTIVAESLQQVRQQLKKLEELEQKYTYEHDPITKNKQVLWDRTFSLFQQLIQSSFVVERQPCMPTHPQRPLVLKTGVQFTVKLRLLVKLQELNYNLKVKVLFDKDVNERNTVKGFRKFNILGTHTKVMNMEESTNGSLAAEFRHLQLKEQKNAGTRTNEGPLIVTEELHSLSFETQLCQPGLVIDLETTSLPVVVISNVSQLPSGWASILWYNMLVAEPRNLSFFLTPPCARWAQLSEVLSWQFSSVTKRGLNVDQLNMLGEKLLGPNASPDGLIPWTRFCKENINDKNFPFWLWIESILELIKKHLLPLWNDGCIMGFISKERERALLKDQQPGTFLLRFSESSREGAITFTWVERSQNGGEPDFHAVEPYTKKELSAVTFPDIIRNYKVMAAENIPENPLKYLYPNIDKDHAFGKYYSRPKEAPEPMELDGPKGTGYIKTELISVSEVHPSRLQTTDNLLPMSPEEFDEVSRIVGSVEFDSMMNTV	> 200	> 100	–
P-STAT1tc: Phosphorylated truncated STAT1 lacking N-terminal domain and short C-terminal activation domain (amino acids 132-712) (protein, UniProt P42224 132-712, looked up, fragment, phosphorylated) STVMLDKQKELDSKVRNVKDKVMCIEHEIKSLEDLQDEYDFKCKTLQNREHETNGVAKSDQKQEQLLLKKMYLMLDNKRKEVVHKIIELLNVTELTQNALINDELVEWKRRQQSACIGGPPNACLDQLQNWFTIVAESLQQVRQQLKKLEELEQKYTYEHDPITKNKQVLWDRTFSLFQQLIQSSFVVERQPCMPTHPQRPLVLKTGVQFTVKLRLLVKLQELNYNLKVKVLFDKDVNERNTVKGFRKFNILGTHTKVMNMEESTNGSLAAEFRHLQLKEQKNAGTRTNEGPLIVTEELHSLSFETQLCQPGLVIDLETTSLPVVVISNVSQLPSGWASILWYNMLVAEPRNLSFFLTPPCARWAQLSEVLSWQFSSVTKRGLNVDQLNMLGEKLLGPNASPDGLIPWTRFCKENINDKNFPFWLWIESILELIKKHLLPLWNDGCIMGFISKERERALLKDQQPGTFLLRFSESSREGAITFTWVERSQNGGEPDFHAVEPYTKKELSAVTFPDIIRNYKVMAAENIPENPLKYLYPNIDKDHAFGKYYSRPKEAPEPMELDGPKGTGYIKTELISVSEV	–	–	2.6

— publication PMC3553987 (Nucleic Acids Research, 2012)
